Results published in patent US20210379110A1 (LENTIGEN TECHNOLOGY, published 2021).

Target: T1, recombinant human CD22 (labeled) (human, UniProt P20273 20-687, limits assumed)
T1 construct: Labeled antigen titrated on yeast; It may be CD22-Fc; also called labeled CD22
T1 sequence (looked up): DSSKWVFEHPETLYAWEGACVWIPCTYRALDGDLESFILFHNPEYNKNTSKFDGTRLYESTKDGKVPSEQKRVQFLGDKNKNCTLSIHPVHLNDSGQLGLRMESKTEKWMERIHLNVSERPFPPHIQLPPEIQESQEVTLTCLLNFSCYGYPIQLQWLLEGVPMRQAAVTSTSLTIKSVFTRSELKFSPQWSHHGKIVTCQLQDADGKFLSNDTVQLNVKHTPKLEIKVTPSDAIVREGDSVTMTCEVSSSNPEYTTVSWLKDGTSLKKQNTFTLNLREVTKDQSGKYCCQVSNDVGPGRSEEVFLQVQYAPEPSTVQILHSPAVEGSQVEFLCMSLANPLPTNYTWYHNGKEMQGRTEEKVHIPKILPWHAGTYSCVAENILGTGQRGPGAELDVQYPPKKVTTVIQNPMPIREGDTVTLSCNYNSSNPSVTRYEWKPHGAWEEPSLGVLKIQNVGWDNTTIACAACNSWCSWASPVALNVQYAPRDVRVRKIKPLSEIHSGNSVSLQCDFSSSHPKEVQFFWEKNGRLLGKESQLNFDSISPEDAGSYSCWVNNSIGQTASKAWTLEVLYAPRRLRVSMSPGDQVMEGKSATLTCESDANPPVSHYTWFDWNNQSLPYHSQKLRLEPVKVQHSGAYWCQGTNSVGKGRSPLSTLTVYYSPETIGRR
Test: flow cytometry of yeast-displayed scFv with decreasing amounts of labeled CD22
Method: After electroporation, the resulting mutant library was then grown overnight at 30° C. for 16 hours in SDCAA medium and then switched into SGCAA medium at 30° C. for another 16 hours. The mutant library was then sorted through MACS (immunomagnetic column, Miltenyi Biotec) with CD22-Fc as the capture antigen to downsize the library and to increase the population of mutants that could bind to CD22-Fc. The strongest binders were then selected by double staining the pools with Anti-c-Myc-Alexa 488 and […] and selecting for the binders that had the highest binding affinities as well as c-Myc expression levels. This process was then repeated two more times, until flow cytometry of yeast particles with fluorescently tagged antigen yielded average binding affinities of the mutant pools that were increased over the starting construct. Binding affinities were estimated by flow cytometry of yeast pools using decreasing amounts of labeled CD22.

EC50: < 0.01 µg/mL
B1: human anti-CD22 ScFv binder 16P17 (scFv, V domains shown)
VH: QVQLQQSGPGLVKHSQTLSLTCAISGDSVSSNSAAWNWIRQSPSRGLEWLGRTYYRSKWYNDYAVSVKSRITINPDTSKNQFSLQLNSVTPEDTAVYYCAQEVEPHDAFDIWGQGTMVTVSS
VL: DIQMTQSPSSVYASVGDKVTITCRASQDVSGWLAWYQQKPGLAPQLLISGASTLQGEVPSRFSGSGSGTDFTLTISSLQPEDFATYYCQQAKYFPYTFGQGTKLEIK
notes: In the CARs the order is VH-(GGGGS)3-VL; also called CD22 scFv 16P17
